Reference: PMC10057847, “Precision engineering of biological function with large-scale measurements and machine learning” (PLOS ONE, 2023)
Where a chain is given by its changes, count along the chain named. In names and notes the source's numbering stands.

B1: pVER-IPTG-004(V136E): LacI variant: A87P V136E V301M E357G (protein, UniProt P03023 1-360, looked up, variant A87P V136E V301M E357G)
Lactose operon repressor: MKPVTLYDVAEYAGVSYQTVSRVVNQASHVSAKTREKVEAAMAELNYIPNRVAQQLAGKQSLLIGVATSSLALHAPSQIVAAIKSRPDQLGASVVVSMVERSGVEACKAAVHNLLAQRVSGLIINYPLDDQDAIAEEAACTNVPALFLDVSDQTPINSIIFSHEDGTRLGVEHLVALGHQQIALLAGPLSSVSARLRLAGWHKYLTRNQIQPIAEREGDWSAMSGFQQTMQMLNEGIVPTAMLVANDQMALGAMRAITESGLRVGADISVVGYDDTEDSSCYIPPLTTIKQDFRLLGQTSMDRLLQLSQGQAVKGNQLLPVSLVKRKTTLAPNTQTASPRALADSLMQLARQVSRLGSGQ
B2: pVER-IPTG-WT(S70R/V271M): LacI variant: S70R V271M (protein, UniProt P03023 1-360, looked up, variant S70R V271M)
Lactose operon repressor: B1 Lactose operon repressor with S70R, P87A, E136V, V271M, M301V, G357E
B3: pVER-IPTG-008: LacI variant: S61L I237T T258S A266T I289F R351* (protein, UniProt P03023 1-360, looked up, variant S61L I237T T258S A266T I289F R351*)
Lactose operon repressor: MKPVTLYDVAEYAGVSYQTVSRVVNQASHVSAKTREKVEAAMAELNYIPNRVAQQLAGKQLLLIGVATSSLALHAPSQIVAAIKSRADQLGASVVVSMVERSGVEACKAAVHNLLAQRVSGLIINYPLDDQDAIAVEAACTNVPALFLDVSDQTPINSIIFSHEDGTRLGVEHLVALGHQQIALLAGPLSSVSARLRLAGWHKYLTRNQIQPIAEREGDWSAMSGFQQTMQMLNEGTVPTAMLVANDQMALGAMRAISESGLRVGTDISVVGYDDTEDSSCYIPPLTTFKQDFRLLGQTSVDRLLQLSQGQAVKGNQLLPVSLVKRKTTLAPNTQTASPRALADSLMQLAQVSRLESGQ
B4: pVER-IPTG-WT(Q291L): LacI variant: Q291L (protein, UniProt P03023 1-360, looked up, variant Q291L)
Lactose operon repressor: B1 Lactose operon repressor with P87A, E136V, Q291L, M301V, G357E
B5: pVER-IPTG-081: LacI variant: P285S V301M S308P M347V (protein, UniProt P03023 1-360, looked up, variant P285S V301M S308P M347V)
Lactose operon repressor: B1 Lactose operon repressor with P87A, E136V, P285S, S308P, M347V, G357E

test system: eYFP under the control of the lactose operator (lacO); assay: in vivo dose-response curves of LacI variants to IPTG measured with flow cytometry (eYFP output), fit to the Hill equation; assay type: cell-based, E. coli; conditions: IPTG dose-response, Hill fit of cytometry data
Description: Dose-response curves were measured with flow cytometry using E. coli MG1655Δlac transformed with variants of the pVER plasmid, described previously. The plasmid contained different variants of the lacI coding DNA sequence (CDS), as described in the text, and an expression cassette with enhanced yellow fluorescent protein (eYFP) under the control of the lactose operator (lacO). The lacI CDS was verified with Sanger sequencing for each variant.
All cultures were grown in a rich M9 media (3 g/L KH2PO4, 6.78 g/L Na2HPO4, 0.5 g/L NaCl, 1 g/L NH4Cl, 0.1 mmol/L CaCl2, 2 mmol/L MgSO4, 4% glycerol, and 20 g/L casamino acids) supplemented with 50 μg/mL kanamycin.
For flow cytometry measurements, E. coli cultures were grown in a laboratory automation system that included an automated liquid handler (Hamilton, STAR), an automated plate sealer (4titude, a4S), an automated de-sealer (Brooks, XPeel), and two multi-mode plate readers (BioTek, Neo2SM).
Cultures were grown in clear polystyrene 96-well plates with 1.1 mL square wells (4titude, 4ti-0255). The culture volume per well was 0.5 mL. Before incubation, each 96-well growth plate was sealed by the automated plate sealer with a gas permeable membrane (4titude, 4ti-0598). Growth plates were incubated in one of the multi-mode plate readers at 37°C with a 1°C gradient applied from the bottom to the top of the incubation chamber to minimize condensation on the inside of the membrane. The plate readers were set for double-orbital shaking at 807 cycles per minute. Optical density at 600 nm (OD600) was measured every 5 minutes during incubation, with continuous shaking applied between measurements (optical density at 700 nm and YFP fluorescence were also measured every 5 minutes). After incubation, the automated de-sealer was used to remove the gas-permeable membrane from each 96-well plate to enable automated passaging of cultures and sample preparation for flow cytometry measurements.
For each measurement, starter cultures were prepared from glycerol freezer stock in 5 mL of rich M9 media in a 14 mL snap-cap culture tubes. Starter cultures were incubated at 37°C with orbital shaking at 300 rpm for between 4 h and 24 h prior to loading the automation system. The automation system then prepared 96-well growth plates, sealed and de-sealed the growth plates, incubated the growth plates, and prepared flow cytometry sample plates. The automated culture protocol consisted of the following steps: […]

Row | Molecule | n: the Hill coefficient
1 | B1 | 1.631
2 | B2 | 1.459
3 | B3 | 1.488

same assay, conditions: basal output, Hill fit of cytometry data, posterior mean; value is log10

Row | Molecule | log_g0: the base-10 logarithm of G0 (in MEF) [MEF]
4 | B1 | 4.54
5 | B3 | 4.293

same assay, conditions: saturating output, Hill fit of cytometry data, posterior mean; value is log10

Row | Molecule | log_ginf: the base-10 logarithm of G∞ (in MEF) [MEF]
6 | B4 | 4.407
7 | B1 | 1.925
8 | B5 | 4.489
9 | B2 | 4.268
10 | B3 | 3.274
